Measurements as given in patent US20180355396, “Biosensors for Organic and Inorganic Arsenic” (THE FLORIDA INTERNATIONAL UNIVERSITY BOARD OF TRUSTEES, published 2018).

Biological target: T1, AfArsR C102S (Acidithiobacillus ferrooxidans, UniProt B7J952 B7J952:1-118, C102S)
T1 sequence: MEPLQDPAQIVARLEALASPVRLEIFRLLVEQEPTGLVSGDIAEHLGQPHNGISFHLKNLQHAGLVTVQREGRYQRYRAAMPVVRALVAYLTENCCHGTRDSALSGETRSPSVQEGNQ
Assay: FP; anisotropy; complex little affected by As(III) up to 40 uM, dissociated by MAs(III), Rox(III), PhAs(III); same buffer
Conditions: tags: C-terminal His tag (pBADarsR, E. coli Top10); chain copies: 2 (homodimer, inferred); label: 5'-6-FAM

B1: ars operator/promoter 30-mer (arsO) (dsDNA)
DNA 1: ATCCACGAATATTTCTTGCAGTATTGACAA
DNA 2: TTGTCAATACTGCAAGAAATATTCGTGGAT
  binding result: binds
